Columns and labels:
[1] = target: MEF2A (2-95), MADS-box/MEF2 domain (Homo sapiens, UniProt Q02078 2-95); test: X-ray crystallography
[2] = target: the molecule itself; test: multiangle light scattering

B1: MEF2 site 14mer (crystal) (dsDNA)
DNA 1: AACTATTTATAAGA
DNA 2: TTCTTATAAATAGT
B1: binds [1].

B2: MADS-box/MEF2 domain of human MEF2A (residues 2-95) (domain or fragment, UniProt Q02078 2-95, looked up)
chain: GRKKIQITRIMDERNRQVTFTKRKFGLMKKAYELSVLCDCEIALIIFNSSNKLFQYASTDMDKVLLKYTEYNEPHESRTNSDIVEALNKKEHRG
In the case of B2, the “stoichiometry N” value [2] is reported as 2.

From paper PMC2952653 (Journal of molecular biology, 2010)
